From PMC3581401 (The Journal of Biological Chemistry, 2013)
Where two headings read alike, the source gives them in different places.

B1: IT4VAR13 DBLβ domain (domain or fragment, Plasmodium falciparum (IT4 isolate), UniProt A3R6S0 811-1201, looked up)
chain: ACTGKDGNNERFKIGTEWKIGEKVETTDTDAYIPPRRQHMCTSNLENLNVSWVTEDGKAIHSLLGDVQLAAKMDADEIIKRYKKHNTLTDPIQQKDQESICRAVRYSFADLGDIIRGRDLWEHGDQTKLQGHLQIIFGKIKEEIKKKHPGINGNDKYKGDEKNNPPYKQLREDWWEANRHQVWRAMQCELKNLKKSNGDCHYNSRGTPLDDYIPQRLRWMVEWAEWFCKMQSQEYDKLMKQCSQCMSKGGDCRKGDVNCTSCEQACEEYKKKIKKWEKQWNKIKDKYEELYLQAKIAFAGTSFGGGDRDYQQMVHFFKELQKVTGDTTLGDTTSPYSTAAGYIHQEGHVDECTEQTQFCKNRNGNTASGKEDDNYTFKDPPPKYANACKCD

Experiments:
[1] = target: ICAM-1 domains 1 to 5 fused to human IgG1 Fc (human) (UniProt P05362); experiment: SPR
[2] = target: ICAM-1 domains 1 to 5, Fc tag removed (human) (UniProt P05362); experiment: AUC
[3] = target: T1, ICAM-1 domains 1 to 5 fused to human IgG1 Fc (human, UniProt P05362 28-485); experiment: SPR
AUC = target: the molecule itself; experiment: AUC
[4] = target: ICAM-1 domains 1 to 5, Fc tag removed (human, UniProt P05362 28-485); experiment: AUC
[5] = target: T1, ICAM-1 domains 1 to 5 fused to human …; experiment: SPR; remark: listed apart in the source
[6] = target: T1, ICAM-1 domains 1 to 5 fused to human …; experiment: SPR; remark: listed apart in the source
ICAM-1 domains 1 and 2 = ICAM-1 domains 1 and 2 (human, UniProt P05362 28-212); experiment: SAXS
Chain of ICAM-1 domains 1 and 2 (P05362 28-212): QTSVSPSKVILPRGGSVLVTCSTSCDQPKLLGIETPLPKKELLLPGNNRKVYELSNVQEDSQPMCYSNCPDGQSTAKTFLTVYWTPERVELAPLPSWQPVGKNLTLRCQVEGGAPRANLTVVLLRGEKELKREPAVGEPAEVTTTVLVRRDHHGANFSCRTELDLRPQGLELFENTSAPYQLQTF

Chain of ICAM-1 domains 1 to 5 fused to human IgG1 Fc (human) (P05362 28-485): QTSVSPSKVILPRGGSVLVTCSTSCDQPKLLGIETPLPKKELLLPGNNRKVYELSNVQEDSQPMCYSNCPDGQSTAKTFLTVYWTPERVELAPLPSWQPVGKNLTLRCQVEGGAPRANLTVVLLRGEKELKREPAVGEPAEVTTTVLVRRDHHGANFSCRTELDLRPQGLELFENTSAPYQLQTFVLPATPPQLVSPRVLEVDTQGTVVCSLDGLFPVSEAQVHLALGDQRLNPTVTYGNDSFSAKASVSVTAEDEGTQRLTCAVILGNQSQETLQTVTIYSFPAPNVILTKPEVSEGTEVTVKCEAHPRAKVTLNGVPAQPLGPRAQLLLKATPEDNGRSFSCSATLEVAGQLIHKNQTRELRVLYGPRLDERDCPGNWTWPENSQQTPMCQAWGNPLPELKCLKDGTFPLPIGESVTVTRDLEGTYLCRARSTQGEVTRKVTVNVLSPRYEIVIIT
T1 sequence (P05362 28-485): as above
Chain of ICAM-1 domains 1 to 5, Fc tag removed (human) (P05362 28-485): as above
Chain of ICAM-1 domains 1 to 5, Fc tag removed (P05362 28-485): as above

Row | Molecule | Kd [1] [nM] | koff [1] [s⁻¹] | kon [1] [M⁻¹ s⁻¹] | stoichiometry N [1] | further results
1 | IT4VAR31 DBLβ domain (domain or fragment) | 144 | 0.00145 |  |  | 
2 | IT4VAR16 DBLβ domain (domain or fragment) | 51.1 | 0.00208 | 41000 |  | 
3 | IT4VAR27 DBLβ domain (domain or fragment) | 6.5 | 0.00842 | 130000 |  | 
4 | IT4VAR13 ectodomain (PfEMP1 from the var13 gene of the P. falciparum IT4 isolate), A3R6S0 1-2691 |  |  |  | 1 | stoichiometry N [2]: 1
5 | IT4VAR41 DBLβ domain (domain or fragment) |  | 0.00831 |  | 1.09 | 
6 | B1 |  |  |  |  | kon [3]: 35000 M⁻¹ s⁻¹; stoichiometry N [3]: 1.16; stoichiometry N (AUC): 2; stoichiometry N [4]: 1; Kd [5]: 2.6 nM; koff [5]: 0.0009 s⁻¹; kon [5]: 350000 M⁻¹ s⁻¹; Kd [6]: 2.8 nM; stoichiometry N (ICAM-1 domains 1 and 2): 1
